Source: patent US20250163410

Test system: VchCAST TnsB transposase (Tn6677; assayed with TnsA-TnsC and TniQ-Cascade) (Vibrio cholerae)
Assay: cell_activity
Details: for binding signal: no IPTG

Sequence: AATGTTGTTGAAACAACCATAAAGTGATAACAACGAATCAATTAAAATCATAGGCTTAATCGAAAAACAACCATATCTTGATATCGCATAAAACAACCATAAGTTGATATTTTGGTGAAAAGGATATTCCAACCTTCATAGTTTAGTAAGAA (double strand) [Left end hyperactive 4668]
- binding signal (T-RL): 1.76 fold vs WT

Sequence: AATGTTGTTGATGCAACCATAAAGTGATATTTAATAATTATTTATAATCAGCAACTGAACCACAAAACAACCATATATTGATATCTCACAAAACAACCATAAGTTGATATTTTTGTGAATCGAGTATTTCAGCAAAACTACTGCAGTAAGAA (double strand) [Left end variant 3311]
- binding signal (log2 fold vs WT) (T-RL, second replicate -0.9350): -1.73

Sequence: AATGTTGTTGATGCAACCATAAAGTGATATTTAATAATTATTTATAATCAGCAACTTAACCACAAAACAACCAGATATTGATATCTCACAAAACAACCATAAGTTGATATTTTTGTGAATCGAGTATTTCAGCAAAACTACTGCAGTAAGAA (double strand) [Left end variant 3260]
- binding signal (log2 fold vs WT) (T-RL, second replicate -0.7874): -1.91

Sequence: AATGTTGTTGATGCAACCATAAAGTGATATTTAATAATTATTTATAATCAGCAACTTAACCACAAAACAACCATATATTCATATCTCACAAAACAACCATAAGTTGATATTTTTGTGAATCGAGTATTTCAGCAAAACTACTGCAGTAAGAA (double strand) [Left end variant 3243]
- binding signal (log2 fold vs WT) (T-RL, second replicate -1.5930): -2.53

Sequence: AATGTTGTTGATGCAACCATAAAGTGATATTTAATAATTATTTATAATCAGCAACTTAACCACAAAACAACCATATATTGATATCTCACAAAACAACCATAAGTTCATATTTTTGTGAATCGAGTATTTCAGCAAAACTACTGCAGTAAGAA (double strand) [Left end variant 3165]
- binding signal (log2 fold vs WT) (T-RL, second replicate -1.3719): -2.25

Sequence: AATGTTGTTGATGCAACCATAAAGTGATATTTAATAATTATTTATAATCAGCAACTTAACCACAAAACAACCATATATTGATATCTCACAAAACAACCATAAGTTGATATTTTTGTGAATAGGATATTCCAACCTTCATAGTTTAGTAAGAA (double strand) [Left end hyperactive 4673]
- binding signal (T-RL): 1.53 fold vs WT

Sequence: AATGTTGTTGATGCAACCATAAAGTGATATTTAATAATTATTTATAATCAGCAACTTAACCACAAAACAACCATATATTGATATCTCACAAAACACCCATAAGTTGATATTTTTGTGAATCGAGTATTTCAGCAAAACTACTGCAGTAAGAA (double strand) [Left end variant 3195]
- binding signal (log2 fold vs WT) (T-RL, second replicate 0.7256): 0.722

Sequence: AATGTTGTTGATGCAACCATAAAGTGATATTTAATAATTATTTATAATCAGCAACTTAACCTCAAAACAACCATATATTGATATCTCACAAAACAACCATAAGTTGATATTTTTGTGAATCGAGTATTTCAGCAAAACTACTGCAGTAAGAA (double strand) [Left end variant 3295]
- binding signal (log2 fold vs WT) (T-RL, second replicate 1.3754): 0.963

Sequence: AATGTTGTTGATGCAACCATAAAGTGATATTTACGAATCAATTAAAATCATAGGCTTAATCGAAAAACAACCATATATTGATATCTCATAAAACAACCATAAGTTGATATTTTGGTGAAAAGGATATTCCAACCTTCATAGTTTAGTAAGAA (double strand) [Left end hyperactive 4666]
- binding signal (T-RL): 2.58 fold vs WT

Sequence: ACATTAGTTGATACAACCATAAAATGATAATTACACCCATAAATTGATAATTATCACACCCATAAATTGATATTGCCTCTGATCATAGTCAGACCAACATTGCTACGACCCGTATTCGCACCGACAC (double strand) [Right end variant 1068]
- binding signal (log2 fold vs WT) (T-RL, second replicate -5.4441): -6.17

Sequence: ACATTCGTTGATACAACCATAAAATGATAATTACACCCATAAATTGATAATTATCACACCCATAAATTGATATTGCCTCTGATCATAGTCAGACCAACATTGCTACGACCCGTATTCGCACCGACAC (double strand) [Right end variant 1070]
- binding signal (log2 fold vs WT) (T-RL, second replicate): -1.95

Sequence: ACATTGGTTGATACAACCATAAAATGATAATTACACCCATAAATTGATAATTATCACACCCATAAATTGATATTGCCTCTGATCATAGTCAGACCAACATTGCTACGACCCGTATTCGCACCGACAC (double strand) [Right end variant 1069]
- binding signal (log2 fold vs WT) (T-RL, second replicate -6.7160): -6.61

Sequence: ACATTTGGTGATACAACCATAAAATGATAATTACACCCATAAATTGATAATTATCACACCCATAAATTGATATTGCCTCTGATCATAGTCAGACCAACATTGCTACGACCCGTATTCGCACCGACAC (double strand) [Right end variant 1063]
- binding signal (log2 fold vs WT) (T-RL, second replicate -5.3052): -6.47

Sequence: ACATTTGTTGATACAACCATAAAATCATAATTACACCCATAAATTGATAATTATCACACCCATAAATTGATATTGCCTCTGATCATAGTCAGACCAACATTGCTACGACCCGTATTCGCACCGACAC (double strand) [Right end variant 1010]
- binding signal (log2 fold vs WT) (T-RL, second replicate -1.5090): -1.91

Sequence: ACATTTGTTGATACAACCATAAAATGATAATAACACCCATAAATTGATAATTATCACACCCATAAATTGATATTGCCTCTGATCATAGTCAGACCAACATTGCTACGACCCGTATTCGCACCGACAC (double strand) [Right end variant 990]
- binding signal (log2 fold vs WT) (T-RL, second replicate 1.0127): 0.854

Sequence: ACATTTGTTGATACAACCATAAAATGATAATTACACCCATAAATTGATAATTATCACACCCATAAATTGATATTGCCTCTCAGACCACATAGCTGCCATGTCCTGATCGGACGGACCGCACCGACAC (double strand) [Right end hyperactive 2701]
- binding signal (T-RL): 1.7 fold vs WT

Sequence: ACATTTGTTGATACAACCATAAAATGATAATTACACCCATAAATTGATAATTATCACACCCATAAATTGATATTGCCTCTCCGACCCGGAAGAGGGCGCCTAGAATTGGGAGTGGTCGCACCGACAC (double strand) [Right end hyperactive 2700]
- binding signal (T-RL): 1.72 fold vs WT

Sequence: ACATTTGTTGATACAACCATAAAATGATAATTACACCCATAAATTGATAATTATCACACCCATAAATTGATATTGCCTCTCGCGAGAGGCCGGCAGCCGTCTGGCGTCGGGTGGCGGGCACCGACAC (double strand) [Right end hyperactive 2697]
- binding signal (T-RL): 2.03 fold vs WT

Sequence: ACATTTGTTGATACAACCATAAAATGATAATTACACCCATAAATTGATAATTATCACACCCATAAATTGATATTGCCTCTGATCAAATTGTGAGCGGATAACAATTTAGTCAGACCAGCACCGACAC (double strand) [Right end hyperactive 2695]
- binding signal (T-RL): 1.82 fold vs WT

Sequence: ACATTTGTTGATACAACCATAAAATGATAATTACACCCATAAATTGATAATTATCACACCCATAAATTGATATTGCCTCTGATCAGGAATTGTGAGCGGATAACAATTTAGTCAGACGCACCGACAC (double strand) [Right end hyperactive 2693]
- binding signal (T-RL): 2.05 fold vs WT

Sequence: ACATTTGTTGATACAACCATAAAATGATAATTACACCCATAAATTGATAATTATCACACCCATAAATTGATATTGCCTCTGATCATAAATATATAAATTAATTATTAAATTAGTCAGGCACCGACAC (double strand) [Right end hyperactive 2692]
- binding signal (T-RL): 2.24 fold vs WT

Sequence: ACATTTGTTGATACAACCATAAAATGATAATTACACCCATAAATTGATAATTATCACACCCATAAATTGATATTGCCTCTGATCATAATTGTTATCCGCTCACAATTCCAGTCAGACGCACCGACAC (double strand) [Right end hyperactive 2694]
- binding signal (T-RL): 1.89 fold vs WT

Sequence: ACATTTGTTGATACAACCATAAAATGATAATTACACCCATAAATTGATAATTATCACACCCATAAATTGATATTGCCTCTGATCATATTTAATAATTAATTTATATATTTAAGTCAGGCACCGACAC (double strand) [Right end hyperactive 2691]
- binding signal (T-RL): 2.63 fold vs WT

Sequence: ACATTTGTTGATACAACCATAAAATGATAATTACACCCATAAATTGATAATTATCACACCCATAAATTGATATTGCCTCTGGCGCTCTGTACCCCGCTCGGTCCTCCCGCGCATCGCGCACCGACAC (double strand) [Right end hyperactive 2698]
- binding signal (T-RL): 1.59 fold vs WT

Sequence: ACATTTGTTGATACAACCATAAAATGATAATTACACCCATAAATTGATAATTATCACACCCATAAATTGATATTGCCTCTGTACGATCCAGTGATCTCCAAGACGCTGCAAGAGTCCGCACCGACAC (double strand) [Right end hyperactive 2702]
- binding signal (T-RL): 1.71 fold vs WT

Sequence: ACATTTGTTGATACAACCATAAAATGATAATTACACCCATAAATTGATAATTATCACACCCATAAATTGATATTGCCTCTGTTGGCGCCCGGCCCTCAGGCCCTGCAGTGAGTTCCAGCACCGACAC (double strand) [Right end hyperactive 2699]
- binding signal (T-RL): 1.77 fold vs WT

Sequence: ACATTTGTTGATACAACCATAAAATGATAATTACACCCATAAATTGATAATTATCACACCCATAAATTGATATTGCCTCTTTATGCAGGACGACGTACGCGTTCCATATAAACCTGTGCACCGACAC (double strand) [Right end hyperactive 2696]
- binding signal (T-RL): 1.83 fold vs WT

Sequence: ACATTTGTTGATACAACCATAAAATGATAATTACACCCATAAATTGATAATTATCACACCCATACCTTGATATTGCCTCTGATCATAGTCAGACCAACATTGCTACGACCCGTATTCGCACCGACAC (double strand) [Right end variant 1100]
- binding signal (log2 fold vs WT) (T-RL, second replicate 1.4027): 1.3

Sequence: ACATTTGTTGATACAACCATAAAATGATAATTATACCCATAAATTGATAATTATCACACCCATAAATTGATATTGCCTCTGATCATAGTCAGACCAACATTGCTACGACCCGTATTCGCACCGACAC (double strand) [Right end variant 985]
- binding signal (log2 fold vs WT) (T-RL, second replicate -1.2264): -1.42

Sequence: ACATTTGTTGATACAACCATAATATGATAATTACACCCATAAATTGATAATTATCACACCCATAAATTGATATTGCCTCTGATCATAGTCAGACCAACATTGCTACGACCCGTATTCGCACCGACAC (double strand) [Right end variant 1017]
- binding signal (log2 fold vs WT) (T-RL, second replicate 1.4722): 1.36

Sequence: ACATTTTTTGATACAACCATAAAATGATAATTACACCCATAAATTGATAATTATCACACCCATAAATTGATATTGCCTCTGATCATAGTCAGACCAACATTGCTACGACCCGTATTCGCACCGACAC (double strand) [Right end variant 1066]
- binding signal (log2 fold vs WT) (T-RL, second replicate -1.9162): -2.48

Sequence: TGTGGATACAACCATAAAACGATAATTACACCCATAAATGGATCATTATCACACCCA (double strand) [Right end ORF1b]
- binding signal (log2 fold vs WT) (T-RL, second replicate): -2.03

Sequence: TGTGGATACAACCATAAAATGATAATTACACCCATAAATGGATCATTATCACCCCCA (double strand) [Right end ORF1a]
- binding signal (log2 fold vs WT) (T-RL integration, second replicate -1.08): -1.47

Sequence: TGTGGATCCAACCATAAAATGATAATTACACCCATAAATGGATCATTATCACACCCA (double strand) [Right end ORF1c]
- binding signal (log2 fold vs WT) (T-RL, second replicate -1.51): -2.06
